From publication PMC10648341, “Cloning and Functional Characterization of NADPH-Cytochrome P450 Reductases in Aconitum vilmorinianum” (Molecules, 2023)

Experiments:
cytochrome c = cytochrome c (UniProt P00004)
CYP76AH1 = biological target: T1, CYP76AH1 (Salvia miltiorrhiza, UniProt S4UX02); assay: HPLC of yeast extracts, ferruginol formation; format: cell-based; settings: miltiradiene made by host yeast YJ14; co-expressed AvCPR1, AvCPR2 or SmCPR1
T1 construct: ORF in pESC-His, co-expressed with AvCPR1 (also AvCPR2 or SmCPR1) in miltiradiene-producing yeast YJ14; with NADPH--cytochrome P450 reductase 1 (Aconitum vilmorinianum)
T1 sequence (S4UX02 1-495): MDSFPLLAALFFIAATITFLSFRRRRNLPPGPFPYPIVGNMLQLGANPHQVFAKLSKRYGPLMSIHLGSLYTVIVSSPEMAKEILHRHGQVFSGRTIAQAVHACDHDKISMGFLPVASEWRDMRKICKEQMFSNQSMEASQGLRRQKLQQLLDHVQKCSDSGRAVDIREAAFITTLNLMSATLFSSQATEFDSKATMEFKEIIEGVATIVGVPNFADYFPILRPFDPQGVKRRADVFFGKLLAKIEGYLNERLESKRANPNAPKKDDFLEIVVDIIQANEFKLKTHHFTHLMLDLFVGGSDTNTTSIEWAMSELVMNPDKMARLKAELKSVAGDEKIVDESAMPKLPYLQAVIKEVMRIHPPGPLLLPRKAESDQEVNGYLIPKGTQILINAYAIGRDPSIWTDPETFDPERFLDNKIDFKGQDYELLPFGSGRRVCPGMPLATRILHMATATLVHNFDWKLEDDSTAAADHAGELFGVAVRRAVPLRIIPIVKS

Sequence of cytochrome c (P00004 whole entry): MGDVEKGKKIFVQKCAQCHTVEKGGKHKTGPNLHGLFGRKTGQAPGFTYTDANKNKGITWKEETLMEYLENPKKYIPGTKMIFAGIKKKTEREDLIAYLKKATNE

| Compound | Km for cytochrome c: steady-state reduction of cytochrome c (0-200 μM) by 4 μg recombinant enzyme with 100 μmol/L NADPH, absorbance at 550 nm, 100 mM Tris-HCl, 0.1 mM EDTA, pH 7.4, 25 °C (cytochrome c) [μmol·L^−1] | HPLC of yeast extracts, ferruginol formation (CYP76AH1) |
| --- | --- | --- |
| truncated AvCPR1 (NADPH-cytochrome P450 reductase 1 of Aconitum vilmorinianum, without the N-terminal membrane-anchoring region) (enzyme) | 344 | – |
| CC(C)c1cc2c(cc1O)[C@@]1(C)CCCC(C)(C)[C@@H]1CC2 [ferruginol] | – | transgenic strains co-expressing AvCPRs or SmCPR with CYP76AH1 produced ferruginol |
| truncated AvCPR2 (NADPH-cytochrome P450 reductase 2 of Aconitum vilmorinianum, without the N-terminal membrane-anchoring region) (enzyme) | 78.1 | – |
